Reference: the supplement of paper PMC9112550, “Optimization of the antimicrobial peptide Bac7 by deep mutational scanning” (BMC Biology, 2022)

System: Escherichia coli TOP10
Assay: shrunken log2 fold change of peptide-encoding DNA abundance (4.5 h post-induction vs induction); higher = less antimicrobial activity (less host growth inhibition)
Conditions: time post-induction: 4.5 h; library: site-saturation at positions 5, 18, 19, 20
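Note: peptides expressed intracellularly from a pBAD plasmid library in pooled LB shake-flask culture, induced with 0.3% L-arabinose, DNA abundance read by NGS, three biological replicates, DESeq2 with apeglm shrinkage.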

Row | Sequence | shrunken log2 fold change
1 | RRIRIRPPRLPRPRPRPWWPPRP | 0.027
2 | RRIRIRPPRLPRPRPRPWWRPRP | -0.0114
3 | RRIRIRPPRLPRPRPRPWYHPRP | -0.351
4 | RRIRIRPPRLPRPRPRPWYKPRP | -0.689
5 | RRIRIRPPRLPRPRPRPWYRPRP | -0.678
6 | RRIRIRPPRLPRPRPRPYDPPRP | -0.0306
7 | RRIRIRPPRLPRPRPRPYDVPRP | -0.101
8 | RRIRIRPPRLPRPRPRPYENPRP | -0.255
9 | RRIRIRPPRLPRPRPRPYFGPRP | -0.0455
10 | RRIRIRPPRLPRPRPRPYHMPRP | -0.123
11 | RRIRIRPPRLPRPRPRPYIAPRP | -0.158
12 | RRIRIRPPRLPRPRPRPYKNPRP | -0.814
13 | RRIRIRPPRLPRPRPRPYLDPRP | -1.02
14 | RRIRIRPPRLPRPRPRPYLNPRP | -0.239
15 | RRIRIRPPRLPRPRPRPYLRPRP | -0.086
16 | RRIRIRPPRLPRPRPRPYMLPRP | -0.916
17 | RRIRIRPPRLPRPRPRPYNCPRP | -0.411
18 | RRIRIRPPRLPRPRPRPYNLPRP | -0.391
19 | RRIRIRPPRLPRPRPRPYNNPRP | -0.462
20 | RRIRIRPPRLPRPRPRPYPLPRP | -0.176
21 | RRIRIRPPRLPRPRPRPYPQPRP | -0.974
22 | RRIRIRPPRLPRPRPRPYPRPRP | -0.311
23 | RRIRIRPPRLPRPRPRPYPVPRP | -0.18
24 | RRIRIRPPRLPRPRPRPYPWPRP | -1.06
25 | RRIRIRPPRLPRPRPRPYQCPRP | -0.349

Row | Sequence | shrunken log2 fold change
26 | RRIRIRPPRLPRPRPRPYQMPRP | -0.35
27 | RRIRIRPPRLPRPRPRPYRNPRP | -0.0378
28 | RRIRIRPPRLPRPRPRPYRQPRP | -0.326
29 | RRIRIRPPRLPRPRPRPYSPPRP | -0.0324
30 | RRIRIRPPRLPRPRPRPYTNPRP | -0.957
31 | RRIRIRPPRLPRPRPRPYVHPRP | -0.189
32 | RRIRIRPPRLPRPRPRPYVKPRP | -0.881
33 | RRIRIRPPRLPRPRPRPYWSPRP | 0.0464
34 | RRIRIRPPRLPRPRPRPYWYPRP | -0.0124
35 | RRIRIRPPRLPRPRPRPYYWPRP | -0.449
36 | RRIRKRPPRLPRPRPRPAAGPRP | 0.896
37 | RRIRKRPPRLPRPRPRPADCPRP | 0.117
38 | RRIRKRPPRLPRPRPRPADNPRP | 0.0284
39 | RRIRKRPPRLPRPRPRPADPPRP | -0.0715
40 | RRIRKRPPRLPRPRPRPAEDPRP | 1.33
41 | RRIRKRPPRLPRPRPRPAFTPRP | 0.021
42 | RRIRKRPPRLPRPRPRPAGAPRP | 0.698
43 | RRIRKRPPRLPRPRPRPAGWPRP | 0.893
44 | RRIRKRPPRLPRPRPRPAGYPRP | 0.0743
45 | RRIRKRPPRLPRPRPRPAHPPRP | 0.711
46 | RRIRKRPPRLPRPRPRPAIYPRP | -0.109
47 | RRIRKRPPRLPRPRPRPAKYPRP | 0.0456
48 | RRIRKRPPRLPRPRPRPALFPRP | 0.497
49 | RRIRKRPPRLPRPRPRPANGPRP | 0.566
50 | RRIRKRPPRLPRPRPRPAPDPRP | 0.598

Row | Sequence | shrunken log2 fold change
51 | RRIRKRPPRLPRPRPRPAPSPRP | 0.748
52 | RRIRKRPPRLPRPRPRPARVPRP | 0.857
53 | RRIRKRPPRLPRPRPRPASIPRP | 0.0215
54 | RRIRKRPPRLPRPRPRPASNPRP | 0.147
55 | RRIRKRPPRLPRPRPRPASYPRP | -0.0778
56 | RRIRKRPPRLPRPRPRPATEPRP | 0.486
57 | RRIRKRPPRLPRPRPRPATMPRP | 0.49
58 | RRIRKRPPRLPRPRPRPAVCPRP | 0.356
59 | RRIRKRPPRLPRPRPRPAVEPRP | 0.019
60 | RRIRKRPPRLPRPRPRPAVMPRP | 0.881
61 | RRIRKRPPRLPRPRPRPAVNPRP | -0.0383
62 | RRIRKRPPRLPRPRPRPAWAPRP | 0.577
63 | RRIRKRPPRLPRPRPRPAWWPRP | 0.577
64 | RRIRKRPPRLPRPRPRPCAWPRP | 0.953
65 | RRIRKRPPRLPRPRPRPCEQPRP | 0.324
66 | RRIRKRPPRLPRPRPRPCFNPRP | -0.0824
67 | RRIRKRPPRLPRPRPRPCFYPRP | -0.115
68 | RRIRKRPPRLPRPRPRPCGCPRP | 0.249
69 | RRIRKRPPRLPRPRPRPCHFPRP | -0.0404
70 | RRIRKRPPRLPRPRPRPCHYPRP | -0.117
71 | RRIRKRPPRLPRPRPRPCIIPRP | -0.108
72 | RRIRKRPPRLPRPRPRPCLTPRP | -0.0179
73 | RRIRKRPPRLPRPRPRPCMAPRP | 0.0448
74 | RRIRKRPPRLPRPRPRPCNGPRP | -0.0184
75 | RRIRKRPPRLPRPRPRPCPLPRP | -0.24

Row | Sequence | shrunken log2 fold change
76 | RRIRKRPPRLPRPRPRPCRWPRP | -0.0708
77 | RRIRKRPPRLPRPRPRPCTPPRP | 0.192
78 | RRIRKRPPRLPRPRPRPCVNPRP | 0.0687
79 | RRIRKRPPRLPRPRPRPCWFPRP | -0.0655
80 | RRIRKRPPRLPRPRPRPCWTPRP | -0.0905
81 | RRIRKRPPRLPRPRPRPCYNPRP | -0.428
82 | RRIRKRPPRLPRPRPRPDCMPRP | -0.0185
83 | RRIRKRPPRLPRPRPRPDDRPRP | 0.0147
84 | RRIRKRPPRLPRPRPRPDEAPRP | 3.09
85 | RRIRKRPPRLPRPRPRPDFRPRP | 0.134
86 | RRIRKRPPRLPRPRPRPDFTPRP | -0.206
87 | RRIRKRPPRLPRPRPRPDKEPRP | -0.2
88 | RRIRKRPPRLPRPRPRPDKQPRP | 0.0638
89 | RRIRKRPPRLPRPRPRPDLRPRP | 0.103
90 | RRIRKRPPRLPRPRPRPDNPPRP | -0.0237
91 | RRIRKRPPRLPRPRPRPDNVPRP | -0.0064
92 | RRIRKRPPRLPRPRPRPDQAPRP | -0.029
93 | RRIRKRPPRLPRPRPRPDQDPRP | 0.0345
94 | RRIRKRPPRLPRPRPRPDQFPRP | -0.0391
95 | RRIRKRPPRLPRPRPRPDQLPRP | 0.107
96 | RRIRKRPPRLPRPRPRPDRHPRP | -0.091
97 | RRIRKRPPRLPRPRPRPDRKPRP | 0.413
98 | RRIRKRPPRLPRPRPRPDRPPRP | 0.0953
99 | RRIRKRPPRLPRPRPRPDRYPRP | -0.0261
100 | RRIRKRPPRLPRPRPRPDVYPRP | -0.0383

Row | Sequence | shrunken log2 fold change
101 | RRIRKRPPRLPRPRPRPDWIPRP | -0.0252
102 | RRIRKRPPRLPRPRPRPDYKPRP | -0.208
103 | RRIRKRPPRLPRPRPRPDYPPRP | -0.0226
104 | RRIRKRPPRLPRPRPRPEDMPRP | 0.0387
105 | RRIRKRPPRLPRPRPRPEDVPRP | -0.04
106 | RRIRKRPPRLPRPRPRPEDWPRP | 2.01
107 | RRIRKRPPRLPRPRPRPEFNPRP | 0.15
108 | RRIRKRPPRLPRPRPRPEGQPRP | 0.107
109 | RRIRKRPPRLPRPRPRPEHVPRP | 0.0142
110 | RRIRKRPPRLPRPRPRPEIQPRP | -0.0762
111 | RRIRKRPPRLPRPRPRPELNPRP | 2.26
112 | RRIRKRPPRLPRPRPRPENQPRP | 0.156
113 | RRIRKRPPRLPRPRPRPENRPRP | 0.246
114 | RRIRKRPPRLPRPRPRPEPEPRP | 1.34
115 | RRIRKRPPRLPRPRPRPEQLPRP | -0.0173
116 | RRIRKRPPRLPRPRPRPERHPRP | 0.105
117 | RRIRKRPPRLPRPRPRPESGPRP | 0.918
118 | RRIRKRPPRLPRPRPRPESYPRP | 0.403
119 | RRIRKRPPRLPRPRPRPETLPRP | 0.0437
120 | RRIRKRPPRLPRPRPRPETMPRP | 0.0612
121 | RRIRKRPPRLPRPRPRPETSPRP | 1.02
122 | RRIRKRPPRLPRPRPRPFAIPRP | -0.00592
123 | RRIRKRPPRLPRPRPRPFASPRP | 0.193
124 | RRIRKRPPRLPRPRPRPFCLPRP | -0.0107
125 | RRIRKRPPRLPRPRPRPFEAPRP | 2.17

Row | Sequence | shrunken log2 fold change
126 | RRIRKRPPRLPRPRPRPFFCPRP | 0.232
127 | RRIRKRPPRLPRPRPRPFFEPRP | 0.428
128 | RRIRKRPPRLPRPRPRPFFTPRP | 0.19
129 | RRIRKRPPRLPRPRPRPFGAPRP | 0.45
130 | RRIRKRPPRLPRPRPRPFGNPRP | -0.171
131 | RRIRKRPPRLPRPRPRPFHCPRP | -0.0128
132 | RRIRKRPPRLPRPRPRPFHWPRP | 0.111
133 | RRIRKRPPRLPRPRPRPFKWPRP | 0.33
134 | RRIRKRPPRLPRPRPRPFMRPRP | 0.24
135 | RRIRKRPPRLPRPRPRPFNTPRP | -0.0902
136 | RRIRKRPPRLPRPRPRPFQYPRP | -0.284
137 | RRIRKRPPRLPRPRPRPFRFPRP | 0.125
138 | RRIRKRPPRLPRPRPRPFRIPRP | -0.0356
139 | RRIRKRPPRLPRPRPRPFRRPRP | 0.0327
140 | RRIRKRPPRLPRPRPRPFRWPRP | 0.0626
141 | RRIRKRPPRLPRPRPRPFTMPRP | -0.23
142 | RRIRKRPPRLPRPRPRPFWEPRP | 0.341
143 | RRIRKRPPRLPRPRPRPGCDPRP | 0.826
144 | RRIRKRPPRLPRPRPRPGDRPRP | 0.886
145 | RRIRKRPPRLPRPRPRPGFEPRP | 0.32
146 | RRIRKRPPRLPRPRPRPGFMPRP | 0.184
147 | RRIRKRPPRLPRPRPRPGGWPRP | 0.62
148 | RRIRKRPPRLPRPRPRPGHDPRP | 0.141
149 | RRIRKRPPRLPRPRPRPGHHPRP | 0.228
150 | RRIRKRPPRLPRPRPRPGHQPRP | -0.0847
